Publication PMC3510498

Experiments:
[1] = target: TTERecR_(1-166) C-terminal deletion mutant (Thermoanaerobacter tengcongensis MB4) (UniProt Q8RDI4); test: SEC; Superdex-200, 0.5 ml/min, 50 mM Tris-HCl pH 7.5, 300 mM NaCl, 200 µg/ml, absorbance at 280 nm
[2] = target: Thermoanaerobacter tengcongensis RecO (Thermoanaerobacter tengcongensis MB4) (UniProt Q8RB48); test: SPR; Biacore3000, 25°C; TTERecO amine-coupled to CM5 chip (4900 RU); TTERecR and mutants injected (0.0125-4 µM), 20 mM HEPES pH 7.4, 200 mM NaCl, 0.005% Tween 20; 1:1 Langmuir model; apparent KD
[3] = target: TTERecR_(1-180) C-terminal deletion mutant (Thermoanaerobacter tengcongensis MB4) (UniProt Q8RDI4); test: SEC; Superdex-200, 0.5 ml/min, 50 mM Tris-HCl pH 7.5, 300 mM NaCl, 200 µg/ml, absorbance at 280 nm
[4] = target: TTERecR_(16-196) N-terminal deletion mutant (Thermoanaerobacter tengcongensis MB4) (UniProt Q8RDI4); test: as above
[5] = target: Thermoanaerobacter tengcongensis RecR, full-length (Thermoanaerobacter tengcongensis MB4) (UniProt Q8RDI4); test: SEC + AUC; SEC: Superdex-200, 0.5 ml/min, 50 mM Tris-HCl pH 7.5, 300 mM NaCl, 200 µg/ml; AUC: 20°C, 1 mg/ml in 5 mM Tris-HCl pH 7.5, 50 mM NaCl, 60 000 rpm (TTERecR, TTERecO) or 55 000 rpm (TTERecOR complex), SEDFIT
[6] = target: Thermoanaerobacter tengcongensis RecO (Thermoanaerobacter tengcongensis MB4) (UniProt Q8RB48); test: as above

For “TTERecR_(1-166) C-terminal deletion mutant (from UniProt Q8RDI4 1-166) (domain or fragment)”, which stoichiometry N [1] is on record?
The stoichiometry N was 2.

And the Kd [2]?
Its Kd is 359 nM.

“TTERecR_(1-180) C-terminal deletion mutant (from UniProt Q8RDI4 1-180) (domain or fragment)” was tested. Which stoichiometry N [3] did it give?
Its stoichiometry N is 2.

And the Kd [2]?
Its Kd is 1480 nM.

“TTERecR_(16-196) N-terminal deletion mutant (from UniProt Q8RDI4 16-196) (domain or fragment)” was tested. Which stoichiometry N [4] did it give?
Its stoichiometry N is 2.

Which stoichiometry N [5] does the source give for “Thermoanaerobacter tengcongensis RecR, full-length (from UniProt Q8RDI4 1-199) (natural protein)” here?
Its stoichiometry N is 2.

What about the stoichiometry N (RecR per RecO) [6] of the same substance?
The stoichiometry N (RecR per RecO) was 2.

What about the Kd [2] of the same substance?
The Kd was 186 nM.
